Data on eleven molecules can be found in patent US20250009750A1, “METHODS OF TREATING DISORDERS ASSOCIATED WITH EYA OVEREXPRESSION AND MUTATIONS” (The Board of Regents of the University of Texas System, priority 2023, published 2025).

Positions count from the first letter of the chain named. Names and notes keep the numbering of the source. “Also recorded” adds a separate entry of the source.

In one data set the test system is cells depleted for EYA4. The data set is described as follows: MTT cell cytotoxicity assay, genotoxic stress (ATR inhibitor or hydroxyurea). The format is cell-based. As to conditions: EYA4-depleted versus control cells, FIG. 21B, FIG. 22A. As to the method:
For genotoxic stress, cells were seeded into 96-well plates (200 cells/well). Twenty-four hours after seeding, increasing concentrations of ATR inhibitor (AZ20) or hydroxyurea were added to the culture (24 h pulse). Cell cytotoxicity was measured after 96 h following manufacturer's protocol (Abcam ab211091). Briefly, 50 μL serum-free media (no phenol red) and 50 μL MTT reagent was added to each well and incubated at 37° C. for 3 h. MTT media was replaced with 150 μL of MTT solvent and incubated with agitation for 15 mn. Absorbance was measured at 590 nm. The cell viability was calculated using the following equation: […]
(In general: Tetrazolium dyes change colour on reduction, which living cells bring about.)

The test system of a further data set is TKCC02.1 cells. The data set is described as follows: Survival of TKCC02.1 cells, alone and in combination. Format: cell-based. As to conditions: TKCC02.1, at doses tested, FIG. 35, FIG. 36.
The test system of data set [1] is HeLa cells (empty vector or knocked down for EYA4). Put plainly: MTT cell cytotoxicity assay with PARP inhibitor. The format is cell-based. Conditions: EYA4-depleted versus control cells, FIG. 5D. Here is the method: HeLa cells (empty vector or knocked down for EYA4) were seeded in 96-well plates. After 24 hrs, increasing concentrations of PARP inhibitor (olaparib) were added. Cell cytotoxicity was measured following manufacturer's protocol (Abcam ab211091). Briefly, 50 μL serum-free media and 50 μL MTT reagent was added to each well and incubated at 37° C. for 3 hrs. MTT media was replaced with 150 μL of MTT solvent and incubated with agitation for 15 min. Absorbance was measured at 590 nm.

The next data set concerns the target cy5-labeled dsDNA. Put plainly: Microscale thermophoresis (MST) DNA binding, dsDNA. As to the method: (§1) A total of 12 concentrations of ligand proteins (e.g., EYA (1-365)) were serially diluted by 1:1 using MST buffer from 5 uM to 2.4 nM, 10 ul of each dose of ligand protein was mixed with 10 ul of cy5-labeled dsDNA/ssDNA supernatant. The mixture of EYA and DNA was loaded into premium capillaries for MST assay with parameters set up at auto-detected excitation power and medium MST power. Binding affinity was analyzed by MO. Affinity Analysis software (version 2.1.3, NanoTemper Technologies) using the signal from an MST-on time of 20 s. Three individual experiments were merged to generate standard deviation.
(§2) Cy5-labeled oligo P1 (T. T. Paull Curr Opin Genet Dev 71, 55-62 (2021)). from IDT ([…]-[…]; SEQ ID NO:1) was used as the ssDNA substrate. dsDNA was generated by annealing Cy5-labeled oligo P1 with its exact complement P2 […]-AAATAAGTAAAAG […] (SEQ ID NO:2). The annealed product was purified by SDS-PAGE then concentrated and quantified. For the long system assays, substrates were sourced from NEB. The ssDNA is the ϕX174 virion DNA and the dsDNA its replicative form ϕX174 RF I DNA.
(Microscale thermophoresis detects binding through changes in fluorescence in a small temperature gradient.)

In the next data set the target is cy5-labeled ssDNA. Put plainly: Microscale thermophoresis (MST) DNA binding, ssDNA. Here is the method:
as §1, §2

For data set [2], the target named is T1, RAD51 Y54F,Y315F (UniProt Q06609 Q06609:1-339, Y54F,Y315F). The data set is described as follows: MST; +/- 7.3 nM, Hill 3.31. As to conditions: tags: pET11 construct, E. coli BLR(DE3)pLysS; label: Cy5.
Data set [3] concerns the target T2, RAD51 WT (UniProt Q06609 Q06609:1-339). The data set is described as follows: MST; +/- 18.1 nM, Hill 2.66. As to conditions: tags: pET11 construct, E. coli BLR(DE3)pLysS; label: Cy5.
Data set [4] addresses T2, RAD51 WT. The data set is described as follows: MST; +/- 162.5 nM, Hill 2.30. As to conditions: tags: pET11 construct, E. coli BLR(DE3)pLysS; label: Cy5 on P1.
The target in another data set is RAD51 Y54D,Y315D (UniProt Q06609 Q06609:1-339, Y54D,Y315D). Put plainly: MST; +/- 0.4951 uM, Hill 2.67. As to conditions: tags: pET11 construct, E. coli BLR(DE3)pLysS; label: Cy5 on P1.
Data set [5] has as its target T1, RAD51 Y54F,Y315F. The data set is described as follows: MST; +/- 11.7 nM, Hill 7.07. As to conditions: tags: pET11 construct, E. coli BLR(DE3)pLysS; label: Cy5 on P1.
The mark [6] stands for this setting: EYA4 constructs binding dsDNA, Table 4.
The mark [7] stands for this setting: EYA4 constructs binding ssDNA, Table 4.
[8] abbreviates: RAD51 proteins binding dsDNA, Table 5.
The mark [9] stands for this setting: RAD51 proteins binding ssDNA, Table 5.

T2 sequence (Q06609 whole entry, one chain of several): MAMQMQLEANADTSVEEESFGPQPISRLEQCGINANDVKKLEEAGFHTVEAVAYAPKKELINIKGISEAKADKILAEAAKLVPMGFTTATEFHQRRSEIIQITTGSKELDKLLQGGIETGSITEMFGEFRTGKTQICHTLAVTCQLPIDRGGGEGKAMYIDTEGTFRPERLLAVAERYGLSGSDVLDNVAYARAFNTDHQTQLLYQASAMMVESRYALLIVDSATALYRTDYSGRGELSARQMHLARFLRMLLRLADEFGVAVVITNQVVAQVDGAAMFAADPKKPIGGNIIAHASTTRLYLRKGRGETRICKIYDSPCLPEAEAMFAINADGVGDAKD
Experimental for TKCC02.1 cells: Similar doses of EYA4i were tested alone and in combination with PARPi (olaparib) or Camptothecin (CPT).

As to `C[C@@H]1COCCN1c1cc(C2(S(C)(=O)=O)CC2)nc(-c2cccc3[nH]ccc23)n1` [AZ20], in the data set with cells depleted for EYA4, the “sensitivity of cells depleted for EYA4 (MTT)” value was “sensitive”.

As to `CC[C@@]1(O)C(=O)OCc2c1cc1n(c2=O)Cc2cc3ccccc3nc2-1` [CPT], the “lethality / efficacy as single agent” value in the data set with TKCC02.1 cells was “not lethal; also recorded: neither PARPi nor CPT are lethal”.

Turning to `NC(=O)NO` [hydroxyurea], the “sensitivity of cells depleted for EYA4 (MTT)” value in the data set on cells depleted for EYA4 is “sensitive”.

For the molecule `O=C(c1cc(Cc2n[nH]c(=O)c3ccccc23)ccc1F)N1CCN(C(=O)C2CC2)CC1` [Olaparib], the “lethality / efficacy as single agent” value with TKCC02.1 cells (listed as PARPi) is listed as “not lethal; also recorded: neither PARPi nor CPT are lethal”. Besides, in data set [1], the “sensitivity of cells depleted for EYA4 (survival, MTT)” value is “sensitive”.

B1: 1-365: N-terminally m-cherry-tagged EYA4 (aa 1-365), purified (protein, UniProt O95677 1-365, looked up, fragment)
chain: MEDSQDLNEQSVKKTCTESDVSQSQNSRSMEMQDLASPHTLVGGGDTPGSSKLEKSNLSSTSVTTNGTGGENMTVLNTADWLLSCNTPSSATMSLLAVKTEPLNSSETTATTGDGALDTFTGSVITSSGYSPRSAHQYSPQLYPSKPYPHILSTPAAQTMSAYAGQTQYSGMQQPAVYTAYSQTGQPYSLPTYDLGVMLPAIKTESGLSQTQSPLQSGCLSYSPGFSTPQPGQTPYSYQMPGSSFAPSSTIYANNSVSNSTNFSGSQQDYPSYTAFGQNQYAQYYSASTYGAYMTSNNTADGTPSSTSTYQLQESLPGLTNQPGEFDTMQSPSTPIKDLDERTCRSSGSKSRGRGRKNNPSPPPD
modifications: N-terminal mCherry tag
notes: N-terminally m-cherry-tagged EYA4 (aa 1-365), purified
On to B1, for which the EC50 was found to be 733 nM at cy5-labeled dsDNA (setting [6]) and 303 nM on cy5-labeled ssDNA (setting [7]). For the same molecule, the Kd came out at 732 nM on cy5-labeled dsDNA (dsDNA binding, FIG. 3C) and 303 nM at cy5-labeled ssDNA (ssDNA binding, FIG. 3C).

B2: WT: purified wild type RAD51 (protein, UniProt Q06609 2-339, looked up)
DNA repair protein RAD51 …: AMQMQLEANADTSVEEESFGPQPISRLEQCGINANDVKKLEEAGFHTVEAVAYAPKKELINIKGISEAKADKILAEAAKLVPMGFTTATEFHQRRSEIIQITTGSKELDKLLQGGIETGSITEMFGEFRTGKTQICHTLAVTCQLPIDRGGGEGKAMYIDTEGTFRPERLLAVAERYGLSGSDVLDNVAYARAFNTDHQTQLLYQASAMMVESRYALLIVDSATALYRTDYSGRGELSARQMHLARFLRMLLRLADEFGVAVVITNQVVAQVDGAAMFAADPKKPIGGNIIAHASTTRLYLRKGRGETRICKIYDSPCLPEAEAMFAINADGVGDAKD
Take B2: the EC50 on cy5-labeled dsDNA (setting [8]) was 1160 nM; on cy5-labeled ssDNA (setting [9]), 515 nM.

B3: YD, YD: double phospho-mimetic RAD51 (Y54D, Y315D) (protein, UniProt Q06609 2-339, looked up, variant Y54D Y315D)
DNA repair protein RAD51 …: B2 DNA repair protein RAD51 … with Y53D, Y314D
For the molecule B3, the EC50 is 3070 nM on cy5-labeled dsDNA (setting [8]) and greater than 5000 nM on cy5-labeled ssDNA (setting [9]).

B4: YF, YF: double-mutant RAD51 (Y54F, Y315F) that cannot be phosphorylated (protein, UniProt Q06609 2-339, looked up, variant Y54F Y315F)
DNA repair protein RAD51 …: B2 DNA repair protein RAD51 … with Y53F, Y314F
Turning to B4, the EC50 at cy5-labeled dsDNA (setting [8]) came out at 561 nM; on cy5-labeled ssDNA (setting [9]), 427 nM.

B5: oligo P1 ssDNA (ssDNA)
DNA: TTATATCCTTTACTTTGAATTCTATGTTTAACCTTTTACTTATTTTGTATTAGCCGGATCCTTATTTCAATTATGTTCAT
As for B5, the EC50 was determined as 427 nM in the data set with RAD51 Y54F,Y315F [2] and 515 nM in the data set with RAD51 WT [3].

B6: P1/P2 dsDNA (dsDNA)
DNA 1: B5 DNA
DNA 2: ATGAACATAATTGAAATAAGGATCCGGCTAATACAAAATAAGTAAAAGGTTAAACATAGAATTCAAAGTAAAGGATATAA
B6: the values for the EC50 in the data set with RAD51 WT [4], with RAD51 Y54D,Y315D and with RAD51 Y54F,Y315F [5] were 1160 nM, 3070 nM and 561 nM, respectively.

B7: SQTQ: phosphomimetic EYA4 double mutant in the ATM-ATR consensus site SQTQ (S209D, T211D) (protein, UniProt O95677 1-639, looked up, variant S209D T211D)
Protein phosphatase EYA4: MEDSQDLNEQSVKKTCTESDVSQSQNSRSMEMQDLASPHTLVGGGDTPGSSKLEKSNLSSTSVTTNGTGGENMTVLNTADWLLSCNTPSSATMSLLAVKTEPLNSSETTATTGDGALDTFTGSVITSSGYSPRSAHQYSPQLYPSKPYPHILSTPAAQTMSAYAGQTQYSGMQQPAVYTAYSQTGQPYSLPTYDLGVMLPAIKTESGLDQDQSPLQSGCLSYSPGFSTPQPGQTPYSYQMPGSSFAPSSTIYANNSVSNSTNFSGSQQDYPSYTAFGQNQYAQYYSASTYGAYMTSNNTADGTPSSTSTYQLQESLPGLTNQPGEFDTMQSPSTPIKDLDERTCRSSGSKSRGRGRKNNPSPPPDSDLERVFVWDLDETIIVFHSLLTGSYAQKYGKDPPMAVTLGLRMEEMIFNLADTHLFFNDLEECDQVHIDDVSSDDNGQDLSTYSFATDGFHAAASSANLCLPTGVRGGVDWMRKLAFRYRRVKELYNTYKNNVGGLLGPAKRDAWLQLRAEIEGLTDSWLTNALKSLSIISTRSNCINVLVTTTQLIPALAKVLLYSLGGAFPIENIYSATKIGKESCFERIMQRFGRKVVYVVIGDGVEEEQAAKKHNMPFWRISSHSDLLALHQALELEYL
B7 yielded a Kd on cy5-labeled dsDNA (DNA (type not stated), FIG. 3E) greater than 2000 nM. Besides, the results for the 50% effective concentration (EC50) at cy5-labeled dsDNA (setting [6]) and on cy5-labeled ssDNA (setting [7]) were 2200 nM and 515 nM, respectively.

As a reminder, the EC50 is the concentration giving half of the maximal effect. Higher therefore signals lower potency in that assay. As usually defined, the Kd is the constant that tells how readily two partners part at equilibrium. Read a high Kd as lower affinity.
